This is an account of results in patent publication US20090247540A1 (published 2009).

The series “crystal structure” concerns the molecule itself. The experiment in a line: crystal structure.
Series [1] deals with the molecule itself. Kind of series: cell surface cross-linking with DSP, immunoprecipitation, SDS-PAGE.

B1: EphA2 ligand-binding domain (receptor)
chain: EVVLLDFAAAGGELGWLTHPYGKGWDLMQNIMNDMPIYMYSVCNVMSGDQDNWLRTNWVYRGEAERIFIELKFTVRDCNSFPGGASSCKETFNLYYAESDLDYGTNFQKRLFTKIDTIAPDEITVSSDFEARHVKLNVEERSVGPLTRKGFYLAFQDIGACVALLSVRVYYKKC
notes: The crystallised domain; It forms dimers in the crystal; also called EphA2 LBD; EphA2-LBD
As for B1, the binding result in “crystal structure” is on record as “binds”.

B2: EphB2 on PC-3 cells (receptor, human, UniProt P29323 19-1055, looked up)
chain: VEETLMDSTTATAELGWMVHPPSGWEEVSGYDENMNTIRTYQVCNVFESSQNNWLRTKFIRRRGAHRIHVEMKFSVRDCSSIPSVPGSCKETFNLYYYEADFDSATKTFPNWMENPWVKVDTIAADESFSQVDLGGRVMKINTEVRSFGPVSRSGFYLAFQDYGGCMSLIAVRVFYRKCPRIIQNGAIFQETLSGAESTSLVAARGSCIANAEEVDVPIKLYCNGDGEWLVPIGRCMCKAGFEAVENGTVCRGCPSGTFKANQGDEACTHCPINSRTTSEGATNCVCRNGYYRADLDPLDMPCTTIPSAPQAVISSVNETSLMLEWTPPRDSGGREDLVYNIICKSCGSGRGACTRCGDNVQYAPRQLGLTEPRIYISDLLAHTQYTFEIQAVNGVTDQSPFSPQFASVNITTNQAAPSAVSIMHQVSRTVDSITLSWSQPDQPNGVILDYELQYYEKELSEYNATAIKSPTNTVTVQGLKAGAIYVFQVRARTVAGYGRYSGKMYFQTMTEAEYQTSIQEKLPLIIGSSAAGLVFLIAVVVIAIVCNRRGFERADSEYTDKLQHYTSGHMTPGMKIYIDPFTYEDPNEAVREFAKEIDISCVKIEQVIGAGEFGEVCSGHLKLPGKREIFVAIKTLKSGYTEKQRRDFLSEASIMGQFDHPNVIHLEGVVTKSTPVMIITEFMENGSLDSFLRQNDGQFTVIQLVGMLRGIAAGMKYLADMNYVHRDLAARNILVNSNLVCKVSDFGLSRFLEDDTSDPTYTSALGGKIPIRWTAPEAIQYRKFTSASDVWSYGIVMWEVMSYGERPYWDMTNQDVINAIEQDYRLPPPMDCPSALHQLMLDCWQKDRNHRPKFGQIVNTLDKMIRNPNSLKAMAPLSSGINLPLLDRTIPDYTSFNTVDEWLEAIKMGQYKESFANAGFTSFDVVSQMMMEDILRVGVTLAGHQKKILNSIQVMRAQMNQIQSVEGQPLARRPRATGRTKRCQPRDVTKKTCNSNDGKKKGMGKKKTDPGRGREIQGIFFKEDSHKESNDCSCGG
notes: whole, on cells
For B2, in series [1], the binding result is “no binding”.
